From PMC8514162
Like-named read-outs stand apart in the source and are kept apart here.

What was measured:
Assay in all cases: native MS
[1] = molecular target: haptoglobin Hp 2-1 isoform HL(L*H)LH (human) (UniProt P00738)
[2] = molecular target: haptoglobin Hp 2-1 isoform HL(L*H)2LH (human) (UniProt P00738)
[3] = molecular target: haptoglobin Hp 1-1, tetramer H-L-L-H (human) (UniProt P00738)
[4] = molecular target: haptoglobin Hp 2-1 isoform HL(L*H)LH (human) (UniProt P00738); remark: listed apart in the source
[5] = molecular target: haptoglobin Hp 1-1, tetramer H-L-L-H (human) (UniProt P00738); remark: listed apart in the source

stoichiometry N (semi-Hb dimers per HL(L*H)LH) [1]: 3
stoichiometry N (dimeric Hb subunits per HL(L*H)2LH) [2]: 4
stoichiometry N (Hb dimers per Hp molecule) [3]: 2
stoichiometry N (semi-Hb dimers per HLLH) [3]: 2
stoichiometry N (α*β* dimers per HLLH) [3]: 2
stoichiometry N (semi-Hb dimers per HL(L*H)LH) [4]: 3
stoichiometry N (α*β* dimers per HLLH) [5]: 2
Substance: semi-hemoglobin dimer α*β* of hemoglobin (Hb) (from UniProt P69905 1-142; P68871 1-147) (complex)
